Article PMC9718833

Columns and labels:
[1] = biological target: Gi3 heterotrimer of the BRET-based Gi-activation sensor (Gai3-RlucII / GFP10Gγ2 / Gβ1) (UniProt P08754)
[2] = biological target: Gs protein (human (endogenous in HEK293T)) (UniProt P63092)
Sequence of UniProt P63092 (P63092 whole entry, looked up): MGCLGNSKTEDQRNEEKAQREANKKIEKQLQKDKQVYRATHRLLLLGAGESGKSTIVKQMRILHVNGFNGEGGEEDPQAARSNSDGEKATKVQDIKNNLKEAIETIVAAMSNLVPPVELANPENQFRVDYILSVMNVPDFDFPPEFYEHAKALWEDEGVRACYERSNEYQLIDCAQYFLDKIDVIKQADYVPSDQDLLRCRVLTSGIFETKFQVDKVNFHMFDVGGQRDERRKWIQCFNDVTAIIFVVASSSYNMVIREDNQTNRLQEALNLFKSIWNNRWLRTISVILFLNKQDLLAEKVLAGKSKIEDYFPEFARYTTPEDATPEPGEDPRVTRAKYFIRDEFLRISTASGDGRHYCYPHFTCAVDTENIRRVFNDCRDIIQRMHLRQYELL

Sequence of UniProt P08754 (P08754 whole entry, chain 1 of 3): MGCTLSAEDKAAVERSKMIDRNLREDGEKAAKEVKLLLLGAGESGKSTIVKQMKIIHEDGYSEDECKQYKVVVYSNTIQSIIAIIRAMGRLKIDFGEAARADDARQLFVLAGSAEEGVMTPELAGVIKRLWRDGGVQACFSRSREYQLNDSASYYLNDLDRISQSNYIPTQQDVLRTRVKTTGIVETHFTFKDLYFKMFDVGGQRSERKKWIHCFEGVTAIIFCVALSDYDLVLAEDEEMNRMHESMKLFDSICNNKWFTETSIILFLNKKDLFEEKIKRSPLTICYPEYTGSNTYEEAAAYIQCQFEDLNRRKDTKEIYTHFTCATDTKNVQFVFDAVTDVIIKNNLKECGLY
Sequence of UniProt P08754 (P62873 whole entry, chain 2 of 3, further chain): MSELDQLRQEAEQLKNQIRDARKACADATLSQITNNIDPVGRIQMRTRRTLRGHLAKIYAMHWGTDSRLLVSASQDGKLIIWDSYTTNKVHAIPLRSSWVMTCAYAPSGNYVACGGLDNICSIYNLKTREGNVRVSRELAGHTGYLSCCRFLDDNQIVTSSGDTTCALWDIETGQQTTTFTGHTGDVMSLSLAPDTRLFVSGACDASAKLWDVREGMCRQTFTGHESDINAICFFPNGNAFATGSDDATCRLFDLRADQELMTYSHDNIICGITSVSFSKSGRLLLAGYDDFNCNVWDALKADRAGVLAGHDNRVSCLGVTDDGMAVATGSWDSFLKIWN
Sequence of UniProt P08754 (P59768 whole entry, chain 3 of 3, further chain): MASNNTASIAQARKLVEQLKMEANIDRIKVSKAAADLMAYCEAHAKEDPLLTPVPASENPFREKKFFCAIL

Substance	increase of the Emax of CHRM1 activation of Gi compared to WT CHRM1, BRET-based Gi-activation (Gi3) sensor in HEK293T, carbachol (% increase of Emax against WT) [1]	increase of the Emax of Gs-dependent cAMP production following carbachol, EPAC-BRET sensor in HEK293T with 500 nM of the Gq inhibitor YM-254890, against WT CHRM1 (% increase of Emax) [2]
HA-tagged human M1 muscarinic acetylcholine receptor (CHRM1) A424K (from UniProt P11229 1-460)	31	
HA-tagged human M1 muscarinic acetylcholine receptor (CHRM1) E221K (from UniProt P11229 1-460)	30	
HA-tagged human M1 muscarinic acetylcholine receptor (CHRM1) L131F (from UniProt P11229 1-460)		51
HA-tagged human M1 muscarinic acetylcholine receptor (CHRM1) R218Q (from UniProt P11229 1-460)		17
